What all share (assay): EMSA
Background: A gel shift assay detects complexes by their altered migration in electrophoresis.

The target in data set [1] is Ryp1(N) (Histoplasma capsulatum G217B, UniProt A9QXX8 1-267). To be noted: protein: ivt; tags: C-terminal TEV site-6xHis; label: 5'-IRDye800 (Fwd strand); blunt.
The target in data set [2] is Ryp1 (Histoplasma capsulatum G217B, UniProt A9QXX8 1-487). To be noted: protein: ivt; tags: C-terminal TEV site-6xHis; label: 5'-IRDye800 (Fwd strand); blunt.
Data set [3] has as its target T1, Ryp2;Ryp3 (Histoplasma capsulatum …, UniProt B2CQK0;B2CQK1 1-404;1-373, |).
T1 sequence 1: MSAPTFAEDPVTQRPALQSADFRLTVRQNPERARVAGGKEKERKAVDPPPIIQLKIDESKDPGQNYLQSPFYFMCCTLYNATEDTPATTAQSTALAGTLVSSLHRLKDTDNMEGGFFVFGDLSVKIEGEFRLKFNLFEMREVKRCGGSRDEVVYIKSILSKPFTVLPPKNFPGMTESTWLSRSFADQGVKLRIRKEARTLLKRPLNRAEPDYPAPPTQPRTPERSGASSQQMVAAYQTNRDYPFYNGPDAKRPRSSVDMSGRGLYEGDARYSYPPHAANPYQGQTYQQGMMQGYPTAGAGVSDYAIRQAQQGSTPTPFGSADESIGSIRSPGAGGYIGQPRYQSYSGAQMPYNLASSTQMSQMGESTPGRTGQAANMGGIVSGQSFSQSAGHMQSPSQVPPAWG
T1 sequence 2: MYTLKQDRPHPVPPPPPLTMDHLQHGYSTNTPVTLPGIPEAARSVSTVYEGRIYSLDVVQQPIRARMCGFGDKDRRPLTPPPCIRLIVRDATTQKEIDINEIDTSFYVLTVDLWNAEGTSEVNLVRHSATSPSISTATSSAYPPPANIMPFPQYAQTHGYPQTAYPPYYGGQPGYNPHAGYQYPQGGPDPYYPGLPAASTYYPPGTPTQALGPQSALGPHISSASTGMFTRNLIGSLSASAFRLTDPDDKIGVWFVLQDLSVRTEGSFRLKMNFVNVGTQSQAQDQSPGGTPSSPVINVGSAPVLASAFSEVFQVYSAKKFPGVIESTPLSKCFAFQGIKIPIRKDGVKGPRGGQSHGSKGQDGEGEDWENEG
To be noted: protein: ivt;ivt; tags: C-terminal TEV site-6xHis;C-terminal TEV site-6xHis; copies: 1;1; label: 5'-IRDye800 (Fwd strand); blunt.

B1: CBP1 promoter Motif A probe (dsDNA)
DNA 1: TAATGGTTCCAGATTGAGTTTCGTTTAAAGTTCACAACTCAATTCGGCAGCTCCGCTGCA
DNA 2: TGCAGCGGAGCTGCCGAATTGAGTTGTGAACTTTAAACGAAACTCAATCTGGAACCATTA
Take B1: the binding result in data set [1] and in data set [2] was “binds” throughout.

B2: CBP1 promoter Motif B probe (dsDNA)
DNA 1: ATCAGGCGTCCGATCAGGTGATTGCTTTTAACCTTGGGATCCAGAGATCTCTCTATCTTT
DNA 2: AAAGATAGAGAGATCTCTGGATCCCAAGGTTAAAAGCAATCACCTGATCGGACGCCTGAT
As for B2, in data set [3], the binding result is “binds”.

The values are drawn from paper PMC3720256.
